From publication PMC4968546, “Heterologous Production and Characterization of Two Glyoxal Oxidases from Pycnoporus cinnabarinus” (Applied and Environmental Microbiology, 2016)

What was measured:
Assay in all cases: HRP/ABTS coupled H2O2 assay, A420, Lineweaver-Burk
Type in all cases: biochemical, Trametes cinnabarina
Details in all cases: 50 mM sodium 2,2-dimethylsuccinate, pH 6, 30°C, O2 as co-substrate, HRP, 0.1 mM ABTS
[1] = substrate: CC(=O)C=O
From the text: (§1) HRP/ABTS coupled H2O2 assay, A420, Lineweaver-Burk on PciGLOX1

[2] = substrate: O=CC(=O)O
From the text: as §1

[3] = substrate: O=CC=O
From the text: as §1

[4] = substrate: CC(=O)C=O; remark: listed apart in the source
From the text: (§2) HRP/ABTS coupled H2O2 assay, A420, Lineweaver-Burk on PciGLOX2

[5] = substrate: O=CC(=O)O; remark: listed apart in the source
From the text: as §2

[6] = substrate: O=CC=O; remark: listed apart in the source
From the text: as §2

[7] = substrate: OCC(O)CO
From the text: as §2

B1: PciGLOX1 (Trametes cinnabarina) (protein)
chain: APSAPGWRFDLKAERSGIVALESIVVSPTLVLWFDRASDDPLQINNHSAWGALWNLETSTVRPLNVLTNSFCASGALLSNGSMASVGGDPRGFPGNPAINPGNQAIRIFEPCASPTGDGCTVFEDPQTLHLLEDRWYPSSIRIFDGSLLIVGGTHVNENFYNLHPANSFEFFPPKESTPRPSAFLERSLPANLFPRIFALPDGKVFMVANNQSIIYDIEANTERILPDIPNNVRVTNPIDGSAILLPLTPPDYIPEVLVCGGTSTDPLDPSLLSSQTPATTQCSRIRLDEEGIAKGWQVEHMLEPRTMPELVHIPNGQILIANGARTGFAAIKQVQDPIGNSNSDHAVLVPSIYTPDAPLGQRISNAGMPSSGIARVYHSSITLTPQGNFLIAGSNPNGNTTVGPGVKFPSEFRVQTLDPPFMFVERPKILNTPEKLAFNKTFTVPISVPSTLASPGAKVQVSLMDLGFSSHAFHSSARLVFMDATISRDRRSLTFTTPPNGRVFPPGPATVFLTIDGVTSEGAWVMMGSGNSPPTLE
notes: secreted from Aspergillus niger D15#26; native 18-aa signal peptide … replaced by A. niger glucoamylase prepro (removed in processing); ORF 556 aa; N-terminus APSA; N-glycosylated, 70 kDa (about 60 kDa deglycosylated)
Km [1]: 1300 µM
Vmax [1]: 77.3 µmol/min/mg
kcat [1]: 76 s⁻¹
kcat/Km [1]: 58500 M⁻¹ s⁻¹
Km [2]: 88 µM
Vmax [2]: 192 µmol/min/mg
kcat [2]: 188 s⁻¹
kcat/Km [2]: 2.14e+06 M⁻¹ s⁻¹
Km [3]: 13100 µM
Vmax [3]: 85.3 µmol/min/mg
kcat [3]: 83 s⁻¹
kcat/Km [3]: 6340 M⁻¹ s⁻¹

B2: PciGLOX2 (Trametes cinnabarina) (protein)
chain: APSTPTGWQFNLKAERSGIVALESIVVSPTLVVFFDRATNDPLQINNHSAWGALWNLETSTVRALDVLTNSFCASGALLSNGTMASIGGDPNGFPGNPAIHPGTQAIRLFEPCDSPTGEGCTLFEDPVTLHLLEKRWYPSSVRIFDGSLLIVGGMHEETPFYNTDPALSFEFFPPKESTPRPSEFLNRSLPANLFPRVFALPDGKVFMVANNQSIIYDIEANTERILPDIPNNVRVTNPIDGSAILLPLSPPDFVPEVLVCGGTQTDTIDPSLLTSQTPASSQCSRIRLDEEGIARGWEVEHMLEGRMMPELVHLPNGQVLIANGARTGFAAIASVSDPVGGSNADHAVLVPSLYTPDAPLGTRISNVGLPSSGIARVYHSSITLTPQGNFLIAGSNPNNNSSVTAGVKFPSEFRVQTLDPPFMFVERPKILSMPKKLAFGKSFTVPIAVPSTLAHPGAKVQVSLMDLGFSSHAFHSSARLVFMNAKISQDGKSLTFTTPPNGRVYPPGPATIFLTIDDVTSEGAWVMMGSGNPPPTLE
notes: secreted from Aspergillus niger D15#26; ORF 559 aa; N-terminus APST; N-glycosylated, 70 kDa (about 60 kDa deglycosylated)
Km [4]: 200 µM
kcat [4]: 1.4 s⁻¹
Km [5]: 100 µM
Vmax [5]: 17.9 µmol/min/mg
kcat [5]: 1.7 s⁻¹
kcat/Km [5]: 17000 M⁻¹ s⁻¹
Km [6]: 2200 µM
Vmax [6]: 15 µmol/min/mg
kcat [6]: 1.4 s⁻¹
kcat/Km [6]: 636 M⁻¹ s⁻¹
Km [7]: 9400 µM
Vmax [7]: 6.42 µmol/min/mg
kcat [7]: 0.6 s⁻¹
kcat/Km [7]: 63 M⁻¹ s⁻¹
